Where “and” joins values, the source holds several entries; their conditions need not be identical. Identical values can stand only once.
Assays:
[1] = target: TV0924 (TREVI0001_0924), acetate kinase from Treponema vincentii (Treponema vincentii); test: mass photometry; TwoMP (Refeyn), sample diluted in PBS, ca. 10 nM in the droplet, 60-s movie; self-association
[2] = target: TV0924 (TREVI0001_0924), acetate kinase from Treponema vincentii (Treponema vincentii); test: AUC; sedimentation velocity, 20°C, Buffer A (20 mM HEPES, 0.1 M NaCl, pH 7.5, 2 mM n-octyl-β-D-glucopyranoside), 50,000 rpm, absorbance at 280 nm, c(s) analysis in SEDFIT; self-association
[3] = target: T1, TV0924 (TREVI0001_0924; rTV0924; TvAckA) (Treponema vincentii, UniProt C8PR54); test: X-ray crystal structure, […] Å; type: binding; settings: active site; co-crystallised with 5 mM ADP and 5 mM MgCl2, pH 5.5; modelled as AMP, may be hydrolysed ADP or ADP with disordered beta-phosphate
T1 construct: gene ackA; homodimer, calculated dimer mass 104,820 g/mol
T1 sequence (C8PR54 1-449): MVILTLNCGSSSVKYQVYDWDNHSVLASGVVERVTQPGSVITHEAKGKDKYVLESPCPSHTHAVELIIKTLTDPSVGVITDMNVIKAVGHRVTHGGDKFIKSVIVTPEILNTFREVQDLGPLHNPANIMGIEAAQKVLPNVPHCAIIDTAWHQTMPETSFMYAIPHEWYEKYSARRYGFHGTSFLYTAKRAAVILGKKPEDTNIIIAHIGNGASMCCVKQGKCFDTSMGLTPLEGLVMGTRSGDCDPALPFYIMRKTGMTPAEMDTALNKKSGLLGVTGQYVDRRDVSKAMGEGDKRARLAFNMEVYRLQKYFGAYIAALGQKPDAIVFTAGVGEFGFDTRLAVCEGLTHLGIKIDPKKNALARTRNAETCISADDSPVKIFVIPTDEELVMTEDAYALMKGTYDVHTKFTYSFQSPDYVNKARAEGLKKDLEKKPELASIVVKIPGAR

[4] = substrate: CC(=O)OP(=O)(O)O; test: purified protein; type: biochemical, Treponema pallidum; settings: ATP-forming direction, ADP up to 5 mM, 20 mM MgCl2, 100 mM HEPES pH 7.5, 100 mM NaCl, 37 °C
[5] = substrate: Nc1ncnc2c1ncn2[C@@H]1O[C@H](COP(=O)(O)OP(=O)(O)O)[C@@H](O)[C@H]1O; test: purified protein; type: biochemical, Treponema pallidum; settings: ATP-forming direction, acetyl phosphate up to 10 mM, 20 mM MgCl2, 100 mM HEPES pH 7.5, 100 mM NaCl, 37 °C
[6] = target: the molecule itself; test: mass photometry; TwoMP (Refeyn), sample diluted in PBS, ca. 10 nM in the droplet, 60-s movie; self-association
[7] = target: the molecule itself; test: AUC; sedimentation velocity, 20°C, Buffer A (20 mM HEPES, 0.1 M NaCl, pH 7.5, 2 mM n-octyl-β-D-glucopyranoside), 50,000 rpm, absorbance at 280 nm, c(s) analysis in SEDFIT; self-association
[8] = substrate: CC(=O)OP(=O)(O)O; test: purified protein; type: biochemical, Treponema vincentii; settings: ATP-forming direction, ADP up to 5 mM, 20 mM MgCl2, 100 mM HEPES pH 7.5, 100 mM NaCl, 37 °C
[9] = substrate: Nc1ncnc2c1ncn2[C@@H]1O[C@H](COP(=O)(O)OP(=O)(O)O)[C@@H](O)[C@H]1O; test: purified protein; type: biochemical, Treponema vincentii; settings: ATP-forming direction, acetyl phosphate up to 10 mM, 20 mM MgCl2, 100 mM HEPES pH 7.5, 100 mM NaCl, 37 °C

## TV0924 (TREVI0001_0924), acetate kinase from Treponema vincentii (enzyme)
[1]
  stoichiometry N: 2
[2]
  stoichiometry N: 2

## Nc1ncnc2c1ncn2[C@@H]1O[C@H](COP(=O)(O)O)[C@@H](O)[C@H]1O [AMP]
[3]
  X-ray crystal structure, 1.30 Å: The nucleotide was modeled as AMP, and we refer to this structure below as TV0924‧AMP.

B1: TP0476, acetate kinase from Treponema pallidum (enzyme, UniProt O83489 1-448, looked up)
chain: MIILTLNCGSSSVKYQVYNWTERAVIAVGVVERVTQAGSVITHEVHGRENHVRESPCPTHTEAVQLIISTLTDAHVGVISDMSLIKAVGHRVLHAADRFVKSVVVTPDVLETFRSVQDLGPLHNPANIRGIEAAQAVIPSVPHCAIMDTAWHQTMPEASFMYAVPRQWYEEYAVRRYGFHGTSFLYTAKRASVILKKRAEDTNIIIAHIGNGASMCCVKNGVSFDTSMGITPLEGLIMGTRCGDCDPALAFYIMRKTGMSVSDIDTTLNKQSGLLGITGKYVDRRDVCAAMKNGDALARLAFDMEVHRIRKYFGAYVAALGKQPDALVFTAGVGEMCCDVRAAACAGLEHLGIRLDARKNELARTRNAETEISTDDSPVRILVIPTDEELVMTEDTYALMQGTYDVHTRFTYSFQDPTYVNKARAAGLKRDLEKNPALATIVVPRLDT
notes: Acetate kinase TP0476 of Treponema pallidum, amino acid residues 1-448; The dominant species is a dimer; monomer, trimer, tetramer and aggregates were also seen; also called rTP0476; TpAckA
[4]
  Km: 380 ± 19 µM
  kcat: 51.5 ± 0.8 s⁻¹
  kcat/Km: 137000 ± 11000 M⁻¹ s⁻¹
[5]
  Km: 650 ± 70 µM
  kcat: 63.3 ± 1.5 s⁻¹
  kcat/Km: 90000 ± 10000 M⁻¹ s⁻¹
[6]
  stoichiometry N: 3 and 4
[7]
  stoichiometry N: 2

B2: TV0924 (TREVI0001_0924; rTV0924; TvAckA) (Treponema vincentii ATCC 35580) (protein)
chain: MVILTLNCGSSSVKYQVYDWDNHSVLASGVVERVTQPGSVITHEAKGKDKYVLESPCPSHTHAVELIIKTLTDPSVGVITDMNVIKAVGHRVTHGGDKFIKSVIVTPEILNTFREVQDLGPLHNPANIMGIEAAQKVLPNVPHCAIIDTAWHQTMPETSFMYAIPHEWYEKYSARRYGFHGTSFLYTAKRAAVILGKKPEDTNIIIAHIGNGASMCCVKQGKCFDTSMGLTPLEGLVMGTRSGDCDPALPFYIMRKTGMTPAEMDTALNKKSGLLGVTGQYVDRRDVSKAMGEGDKRARLAFNMEVYRLQKYFGAYIAALGQKPDAIVFTAGVGEFGFDTRLAVCEGLTHLGIKIDPKKNALARTRNAETCISADDSPVKIFVIPTDEELVMTEDAYALMKGTYDVHTKFTYSFQSPDYVNKARAEGLKKDLEKKPELASIVVKIPGAR
notes: homodimer, calculated dimer mass 104,820 g/mol
[8]
  Km: 320 ± 30 µM
  kcat: 3900 ± 300 s⁻¹
  kcat/Km: 1.19e+07 ± 400000 M⁻¹ s⁻¹
[9]
  Km: 650 ± 30 µM
  kcat: 4800 ± 400 s⁻¹
  kcat/Km: 7.5e+06 ± 400000 M⁻¹ s⁻¹
